Among the data in article doi:10.1101/2025.01.22.634229, “Computationally designed stem-epitope mimetics elicit broadly reactive antibodies” (bioRxiv, 2025) are Kd values, retold here.

Holding throughout (details): both partners purified
One assay deals with T1, FI6-focused_03 (synthetic design on Bacteroides …).
T1 construct: also called FI6-focused design_03; design_03 scaffold; source: E. coli BL21 (DE3), purified (Ni-NTA, SEC)
T1 chain: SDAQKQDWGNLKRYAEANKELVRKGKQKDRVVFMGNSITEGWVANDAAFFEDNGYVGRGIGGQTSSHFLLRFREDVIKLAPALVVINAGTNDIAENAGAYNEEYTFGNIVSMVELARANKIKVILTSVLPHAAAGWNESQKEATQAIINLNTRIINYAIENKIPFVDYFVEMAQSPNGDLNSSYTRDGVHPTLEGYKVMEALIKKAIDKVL
Kind of assay: SPR. On the technique in general: Surface plasmon resonance follows binding to a sensor surface in real time, without labels.

A further assay addresses T2, stem-mimetic_01 (synthetic design on Mus musculus ApoE …, chimera).
T2 construct: source: E. coli BL21 (DE3), purified (Ni-NTA, SEC)
T2 chain: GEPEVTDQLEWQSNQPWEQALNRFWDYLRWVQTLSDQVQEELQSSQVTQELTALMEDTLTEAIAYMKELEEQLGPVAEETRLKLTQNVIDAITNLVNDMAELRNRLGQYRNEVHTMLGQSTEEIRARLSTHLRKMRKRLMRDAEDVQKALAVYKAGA
Kind of assay: SPR; Biacore 8K, HBS-EP+; ligand on a CM5 chip by amine coupling, named FI6 Fab in the legend of Figure 2A and 2D (the methods say IgG); monomeric design as analyte (62.5 nM to 7.8 nM for FI6-focused_04; 5 μM to 312.5 nM for stem-mimetic_01); 1:1 Langmuir fit.

For the next assay, the target named is T3, FI6-focused_04 (synthetic design on Bacteroides …).
T3 construct: also called FI6-focused design_04; FI6-focused design; source: E. coli BL21 (DE3), purified (Ni-NTA, SEC)
T3 chain: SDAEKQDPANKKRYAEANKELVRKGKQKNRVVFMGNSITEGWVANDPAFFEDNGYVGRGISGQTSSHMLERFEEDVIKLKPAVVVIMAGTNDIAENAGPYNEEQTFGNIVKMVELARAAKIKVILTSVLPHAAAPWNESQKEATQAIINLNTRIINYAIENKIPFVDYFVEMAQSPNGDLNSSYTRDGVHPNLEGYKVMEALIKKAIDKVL
The assay is described as above.

B1: FI6 antibody (IgG) (antibody, V domains shown)
VH: QVQLVESGGGVVQPGRSLRLSCAASGFTFSTYAMHWVRQAPGKGLEWVAVISYDANYKYYADSVKGRFTISRDNSKNTLYLQMNSLRAEDTAVYYCAKDSQLRSLLYFEWLSQGYFDYWGQGTLVTVSS
VL: DIVMTQSPDSLAVSLGERATINCKSSQSVTFNYKNYLAWYQQKPGQPPKLLIYWASTRESGVPDRFSGSGSGTDFTLTISSLQAEDVAVYYCQQHYRTPPTFGQGTVEIK
notes: also called FI6 Ab; source: Expi293, purified (protein A, SEC)
The Kd is the constant that tells how readily two partners part at equilibrium. Read a low Kd as tighter binding. Consider B1, for which the Kd with FI6-focused_03 stood at 0.26 nM.

B2: FI6 Fab (Fab, V domains shown)
VH: QVQLVESGGGVVQPGRSLRLSCAASGFTFSTYAMHWVRQAPGKGLEWVAVISYDANYKYYADSVKGRFTISRDNSKNTLYLQMNSLRAEDTAVYYCAKDSQLRSLLYFEWLSQGYFDYWGQGTLVTVSS
VL: DIVMTQSPDSLAVSLGERATINCKSSQSVTFNYKNYLAWYQQKPGQPPKLLIYWASTRESGVPDRFSGSGSGTDFTLTISSLQAEDVAVYYCQQHYRTPPTFGQGTVEIK
As for B2, the Kd with stem-mimetic_01 was determined as 44 nM; with FI6-focused_04 it was 6 nM.
